Data from US20150011730A1 (UNIVERSITY OF SOUTH CAROLINA, published 2015).
No end group written: not given here. Pyrazole N‑cap, 4‑chlorophenylpyrazole (R1 H, R2 Cl, R3 H, R4 CH3, W N, X N, Y C, Z C) = not defined here

Assays:
Experiment in all cases: FP binding assay
[1] = target: T1, CDK4/cyclin D1 (as used in the binding assay) (UniProt P11802 1-303; P24385 1-295)
T1 construct: kept apart from the GST-tagged kinase-assay complex m2; also called CDK4/D1

[2] = target: CDK2/cyclin A (as used in the binding assay) (UniProt P24941 1-298; P20248 1-432)
[3] = target: T1, CDK4/cyclin D1 (as used in the binding …); remark: listed apart in the source

B1: SCCP 5765 (Pyrazole N-cap ligated to RLIF) (peptide)
peptide: {Pyrazole N‑cap, 4‑chlorophenylpyrazole (R1 H, R2 Cl, R3 H, R4 CH3, W N, X N, Y C, Z C)}-RLIF
modifications: reading uncertain; also: cap structure given only by scaffold parameters
notes: also called 4-chlorophenylpyrazole
- fold less active relative to the triazole N capping group [1]: ≥ 4 fold
- IC50 [2]: 33.7 µM
- IC50 [3]: 49 µM
